# From paper PMC11404819, “Peptide nucleic acids can form hairpins and bind RNA-binding proteins”
# T1: Avi-FtsYNG (UniProt P10121 196-497)
# T1 sequence: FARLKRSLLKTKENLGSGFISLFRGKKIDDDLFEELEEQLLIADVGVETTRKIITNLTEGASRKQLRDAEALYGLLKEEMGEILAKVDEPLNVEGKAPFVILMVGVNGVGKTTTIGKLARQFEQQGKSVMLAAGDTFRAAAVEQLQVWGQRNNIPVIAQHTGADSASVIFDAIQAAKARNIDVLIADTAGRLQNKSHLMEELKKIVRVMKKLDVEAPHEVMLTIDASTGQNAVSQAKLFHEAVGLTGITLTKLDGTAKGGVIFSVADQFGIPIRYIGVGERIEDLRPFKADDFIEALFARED
# Biological target: T1, Avi-FtsYNG
# Test: SPR; 10 C; RNA over immobilised protein; curve incomplete, fit fixed with GDP control; figure legend swaps panels with PNAtet; SPR: 20 mM HEPES pH 7.5, 150 mM NaCl, 3 mM MgCl2, 1 mM TCEP, 1% glycerol, 0.005% Tween, 10 C; MST: 50 mM HEPES pH 7.5, 100 mM NaCl, 1.5 mM MgCl2, 10% glycerol
# Conditions: protein: recombinant; tags: Avi tag, biotinylated, immobilised on streptavidin; hairpin, 5 bp stem
binder,measurement,value
"GCGCCGGAAGGCGC (structured_RNA, first and last two phosphodiester bonds replaced by phosphorothioate) [moRNAtet]",Kd,160 ± 20 µM
